± gives the standard deviation.
Assay: protein stability index of a GFP-peptide fusion (GPS, HEK-293T) (PSI 1-6); higher = more stable
Settings: c terminus: a fixed tail appended
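Also: 24-mer peptide tiles fused after GFP, lentivirally expressed, FACS-sorted into six equal bins by GFP/DsRed ratio, decoded by Illumina sequencing, PSI is the read-weighted mean bin number.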

Row | Sequence | protein stability index (treatment: DMSO) | protein stability index (treatment: MLN4924 1 uM, 8 h)
1 | QDLKLFLQEPGVFSPTPPQQFQPA [FCHSD1] | 3.26 ± 0.34 | 3.55 ± 0.55
2 | DNPFGIYQKILAGKIDFPRHLDFH [PRKX] | 2.1 ± 0.33 | 2.23 ± 0.28
3 | PEISRIIVDPTTGKRYCRGKVLGK [PLK2] | 3.9 ± 0.22 | 4.04 ± 0.2
4 | MATYLRYVRRLDFFEKPDYDYLRK [CSNK1G3] | 2.31 ± 0.42 | 2.32 ± 0.12
5 | RDGLAEDLAALKQRLEEETRKRED [PRPH] | 5.33 ± 0.33 | 5.25 ± 0.27
6 | FVLNAAQCSMPLHVAPLLAAAGLH [NR2F2] | 3.13 ± 0.25 | 2.49 ± 0.48
7 | MMCVAERTYKQRFLFAKLFSHITS [PHTF1] | 1.79 ± 0.71 | 2.24 ± 0.47
8 | KQQIANLDKQAKLSRAYDGTTYLP [USP39] | 3.62 ± 0.19 | 3.87 ± 0.41
9 | FMLEIVTPTSLSSLSNAVANTMEH [FBXO33] | 2.77 ± 0.75 | 2.7 ± 0.55
10 | LQHMKAVQADQERERQRRLEVERE [LRRC59] | 5.24 ± 0.33 | 5.09 ± 0.27
11 | LAKDFIRRLLVKDPKRRMTIAQSL [DAPK3] | 2.96 ± 0.3 | 2.7 ± 0.051
12 | WTALHFAAQNGDESSTRLLLEKNA [RIPK4] | 3.4 ± 0.08 | 3.28 ± 0.33
13 | RDEVRFFKGNKYWAVQGQNVLHGY [MMP1] | 2.35 ± 0.22 | 2.51 ± 0.14
14 | YSLFVGLFLFGYKFSGLYILSFTV [SLC35F2] | 3.24 ± 0.39 | 3.07 ± 0.39
15 | YPTCGIGYPVSSAFAFQNTFPHSI [SASS6] | 2.66 ± 0.55 | 2.49 ± 0.41
16 | PAYGMSPSLSTITSTSSSITSSIP [DVL3] | 3.82 ± 0.26 | 3.65 ± 0.27
17 | YNSEILEEAISVVMSGKMSVSKAQ [LCOR] | 2.96 ± 0.17 | 3.03 ± 0.41
18 | CSWKGATKQRIQDQKVPYIFRDNQ [CHIT1] | 2.87 ± 0.24 | 3.14 ± 0.62
19 | NKVLVCPMKSAPVMLTLSDSKHVV [RBBP5] | 2.57 ± 0.25 | 2.75 ± 0.19
20 | LSQLSSHDPLWRRHCKKYWLISEE [FBXO3] | 2.54 ± 0.069 | 2.67 ± 0.4
21 | AFRYLSWILFPLLGCYAVYSLLYL [CLPTM1] | 2.29 ± 0.44 | 3.03 ± 0.66
22 | CSSSGKDGNLCLHVPNPPSGISFP [HESX1] | 3.15 ± 0.18 | 3.25 ± 0.33

Row | Sequence | protein stability index (treatment: DMSO) | protein stability index (treatment: MLN4924 1 uM, 8 h)
23 | MTMQFISHRFPEDHDPTIEDAYKI [RIT1] | 3.24 ± 0.15 | 3.36 ± 0.22
24 | VAKCLIGVNYPKPMVNHAEASRLN [CRY1] | 2.5 ± 0.14 | 2.46 ± 0.38
25 | DSQQPGKRRKDSEEEAASPEGKRV [FANCE] | 5.66 ± 0.13 | 5.5 ± 0.25
26 | PGSLGPWKITIYDQENFQGKRMEF [CRYBA1] | 2.25 ± 0.33 | 2.18 ± 0.39
27 | ADRAQKMDGESEEEQESVDTGEEE [EHMT1] | 5.78 ± 0.16 | 5.73 ± 0.32
28 | QLAKELGATYLELHSLDDFYIGKY [RHOBTB3] | 2.56 ± 0.56 | 2.33 ± 0.27
29 | HYDRNKDGNKDVYLSLLRMYLSPP [VPS39] | 2.29 ± 0.14 | 2.16 ± 0.18
30 | EEDLVLTCEDDEDEELGGSSRVPV [ZBTB22] | 5.67 ± 0.24 | 5.6 ± 0.21
31 | SPWNFLGDELYEQSDEEQDSVKVA [CLPTM1] | 5.32 ± 0.21 | 5.36 ± 0.4
32 | ERFLELAPDFVGDILWEHLEQMIK [ETS2] | 2.36 ± 0.58 | 2.89 ± 0.51
33 | KECGKVFSQSAGLIQHQRIHKGEK [ZSCAN9] | 4.42 ± 0.16 | 4.48 ± 0.3
34 | NPELIKPKKLLNPVKASRSHQELH [FAM107A] | 4.21 ± 0.16 | 4.24 ± 0.26
35 | ELDSSSSLCVLVSTVGKLCRLINE [CEP70] | 3.73 ± 0.53 | 3.6 ± 0.35
36 | EAAGGESALAPSVFKQAKDKVSDG [MAP2] | 5.46 ± 0.26 | 5.43 ± 0.32
37 | HYCNSSTDRRVLLMFLDICSELNK [SPACA9] | 2.18 ± 0.35 | 2.21 ± 0.29
38 | EKRAKRLSSAPSSRAEPIRTTVFQ [ZMAT5] | 3.74 ± 0.54 | 3.86 ± 0.061
39 | QLLKGRVDNISTLDSEIKKNSDGM [CD207] | 4.24 ± 0.16 | 4.23 ± 0.2
40 | KKQPWWRKLFGQESGPSAEKYSVA [FUNDC2] | 3.1 ± 0.16 | 3.32 ± 0.35
41 | DREGYTSFWNDCISSGLRGCMLIE [GOLPH3] | 2.08 ± 0.28 | 2.31 ± 0.19
42 | FGELRLGKNLYTNEYVAIKLEPIK [CSNK1G1] | 3.02 ± 0.94 | 2.04 ± 0.47
43 | FQTAIDIFEDRIRGIDIIKWMERY [TRAF3IP2] | 1.9 ± 0.34 | 2.43 ± 0.66
44 | ADGARSAVVAAGGGSSGQVTSNGS [CLPTM1] | 5.3 ± 0.065 | 5.09 ± 0.14
